Measured values as given in US20140087995A1 (published 2014).
Where two headings read alike, the source gives them in different places. Numbered stars: 1 amine (or outer) side, 2 acyl side, 3 side chain; on linkers, the order of the positions; unused ones are H or OH. Bridge positions count the residues as written; N and C are the ends. Side chains are listed from the residue outwards. Ends that are not written are not given here. * marks the point of attachment. C20 diacid = O=C(O)CCCCCCCCCCCCCCCCCCC(=O)*; γGlu = O=C(O)[C@H](CCC(=O)[*:2])N[*:1]; AEEA = NCCOCCOCC(=O)O

T1: human amylin receptor (amylin 3(a) receptor: human calcitonin receptor plus RAMP-3) (human, UniProt P30988 25-474; O60896 24-148)
T1 sequence (looked up) 1: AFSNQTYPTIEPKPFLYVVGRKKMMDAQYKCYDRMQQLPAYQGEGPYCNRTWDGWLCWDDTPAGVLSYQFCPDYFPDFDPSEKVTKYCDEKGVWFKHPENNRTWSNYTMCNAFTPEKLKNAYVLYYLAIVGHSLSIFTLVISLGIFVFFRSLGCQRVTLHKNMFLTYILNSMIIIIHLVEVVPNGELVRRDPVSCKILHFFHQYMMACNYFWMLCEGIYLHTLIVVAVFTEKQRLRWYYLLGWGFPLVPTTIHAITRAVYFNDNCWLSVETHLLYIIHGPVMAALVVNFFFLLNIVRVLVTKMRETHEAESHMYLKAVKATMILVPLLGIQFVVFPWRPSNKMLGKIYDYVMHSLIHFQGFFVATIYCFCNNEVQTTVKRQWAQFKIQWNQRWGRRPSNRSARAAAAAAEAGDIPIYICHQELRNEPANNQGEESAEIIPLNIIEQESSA
T1 sequence (looked up) 2: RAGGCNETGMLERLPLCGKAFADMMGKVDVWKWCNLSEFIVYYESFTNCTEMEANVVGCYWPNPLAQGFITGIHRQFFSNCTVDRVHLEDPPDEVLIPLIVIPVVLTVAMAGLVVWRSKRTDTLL

T2: human calcitonin receptor (human, UniProt P30988 25-474)
T2 sequence (looked up): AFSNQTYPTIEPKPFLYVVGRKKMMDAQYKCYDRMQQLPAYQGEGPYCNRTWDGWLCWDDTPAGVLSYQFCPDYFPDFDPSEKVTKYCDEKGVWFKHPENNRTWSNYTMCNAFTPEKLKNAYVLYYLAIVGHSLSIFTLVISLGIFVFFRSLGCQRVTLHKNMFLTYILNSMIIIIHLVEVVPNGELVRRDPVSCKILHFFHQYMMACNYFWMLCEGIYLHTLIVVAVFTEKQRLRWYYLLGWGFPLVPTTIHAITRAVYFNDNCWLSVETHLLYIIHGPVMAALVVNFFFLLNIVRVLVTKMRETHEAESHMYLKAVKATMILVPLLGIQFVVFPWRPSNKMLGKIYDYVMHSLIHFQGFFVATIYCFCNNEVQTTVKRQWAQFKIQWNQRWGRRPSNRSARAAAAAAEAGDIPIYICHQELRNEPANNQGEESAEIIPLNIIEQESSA


Assays:
[1] = molecular target: T1, human amylin receptor (amylin 3(a) …); experiment: cell-based or functional assay
[2] = molecular target: T2, human calcitonin receptor; experiment: cell-based or functional assay
[3] = molecular target: T1, human amylin receptor (amylin 3(a) …); experiment: SPA competition, displacement of 125I-rat amylin from membranes of BHK cells with human calcitonin receptor + RAMP-3 (Assay V)
Experimental: (§1) The binding assay was performed using scintillation proximity assay (SPA) beads (RPNQ0001) from PerkinElmer and cell membranes from the Amylin 3(a)/CRE-luc cells (as described in Assay (II)) were used. Membranes were prepared in the following way; the cells were rinsed with PBS and incubated with Versene for approximately 5 min before harvesting. The cells were flushed with PBS and the cell-suspension was centrifuged for 5 min at 1000 rpm. Cells were homogenized (ultrathurrax) in a buffer containing 20 mM Na-HEPES and 10 mM EDTA (pH 7.4) and centrifuged at 20.000 rpm for 15 min. The resulting pellet was resuspended, homogenized and centrifuged (20.000 rpm, 15 min) in a buffer containing 20 mM Na-HEPES and 0.1 mM EDTA (pH 7.4, buffer 2). The resulting pellet was resuspended in buffer 2 and protein concentration was measured (BCA protein Assay, Pierce). The homogenate was kept cold during the whole procedure. The membranes were kept at −80° C. until use. The assay was performed in a 384 well Optiplate (PerkinElmer) in a total volume of 40 ul. Membranes were mixed with SPA beads. Final concentration of membranes 35 ng/μL final and SPA beads was 0.05 mg/well. Test-compounds were dissolved in DMSO and further diluted in assay buffer (50 mM Hepes, pH 7.4, 1 mM CaCl2, 5 mM MgCl₂, 0.1% OA and 0.02% Tween20). […] The final mixture was incubated with shaking at 400 rpm for 120 min at 25° C. prior to centrifugation (1500 rpm, 10 min). Samples were analyzed on TopCounter™ (Packard). The IC₅₀ was calculated using (one site binding competition analysis) GraphPad Prism5 as a measure of receptor affinity.

[4] = molecular target: T1, human amylin receptor (amylin 3(a) …); experiment: cell-based or functional assay; remark: listed apart in the source
[5] = molecular target: T2, human calcitonin receptor; experiment: cell-based or functional assay; remark: listed apart in the source
[6] = molecular target: T1, human amylin receptor (amylin 3(a) …); experiment: SPA competition, displacement of 125I-rat amylin from membranes of BHK cells with human calcitonin receptor + RAMP-3 (Assay V); remark: listed apart in the source
Experimental: as §1

Binder | Ratio hCT/hAmylin funct. [1] | hAmylin-R funct. EC50 (pM) [1] | hCTR funct. EC50 (pM) [2] | IC50 [3] | Ratio hCT/hAmylin funct. [4] | hAmylin-R funct. EC50 (pM) [4] | hCTR funct. EC50 (pM) [5] | IC50 [6]
K([AEEA-γGlu-C20 diacid])CNTATCATQRLANFLRHSSPNFGAIPSSTPVGSHTY-NH2 (disulfide 2-7; N-terminus assumed; SMILES CC[C@H](C)[C@H](NC(=O)[C@H](C)NC(=O)CNC(=O)[C@H](Cc1ccccc1)NC(=O)[C@H](CC(N)=O)NC(=O)[C@@H]1CCCN1C(=O)[C@H](CO)NC(=O)[C@H](CO)NC(=O)[C@H](Cc1c[nH]cn1)NC(=O)[C@H](CCCNC(=N)N)NC(=O)[C@H](CC(C)C)NC(=O)[C@H](Cc1ccccc1)NC(=O)[C@H](CC(N)=O)NC(=O)[C@H](C)NC(=O)[C@H](CC(C)C)NC(=O)[C@H](CCCNC(=N)N)NC(=O)[C@H](CCC(N)=O)NC(=O)[C@@H](NC(=O)[C@H](C)NC(=O)[C@@H]1CSSC[C@H](NC(=O)[C@@H](N)CCCCNC(=O)COCCOCCNC(=O)CC[C@H](NC(=O)CCCCCCCCCCCCCCCCCCC(=O)O)C(=O)O)C(=O)N[C@@H](CC(N)=O)C(=O)N[C@@H]([C@@H](C)O)C(=O)N[C@@H](C)C(=O)N[C@@H]([C@@H](C)O)C(=O)N1)[C@@H](C)O)C(=O)N1CCC[C@H]1C(=O)N[C@@H](CO)C(=O)N[C@@H](CO)C(=O)N[C@H](C(=O)N1CCC[C@H]1C(=O)N[C@H](C(=O)NCC(=O)N[C@@H](CO)C(=O)N[C@@H](Cc1c[nH]cn1)C(=O)N[C@H](C(=O)N[C@@H](Cc1ccc(O)cc1)C(N)=O)[C@@H](C)O)C(C)C)[C@@H](C)O, also called compound 57) | 35 | 89 pM | 3120 pM | 0.115 nM | 35 | 89 pM | 3120 pM | 0.115 nM
K([γGlu-C20 diacid])CNTATCATQRLAHFLRHSSPNFGAIPSSTNVGSHTY-NH2 (disulfide 2-7; N-terminus assumed; SMILES CC[C@H](C)[C@H](NC(=O)[C@H](C)NC(=O)CNC(=O)[C@H](Cc1ccccc1)NC(=O)[C@H](CC(N)=O)NC(=O)[C@@H]1CCCN1C(=O)[C@H](CO)NC(=O)[C@H](CO)NC(=O)[C@H](Cc1c[nH]cn1)NC(=O)[C@H](CCCNC(=N)N)NC(=O)[C@H](CC(C)C)NC(=O)[C@H](Cc1ccccc1)NC(=O)[C@H](Cc1c[nH]cn1)NC(=O)[C@H](C)NC(=O)[C@H](CC(C)C)NC(=O)[C@H](CCCNC(=N)N)NC(=O)[C@H](CCC(N)=O)NC(=O)[C@@H](NC(=O)[C@H](C)NC(=O)[C@@H]1CSSC[C@H](NC(=O)[C@@H](N)CCCCNC(=O)CC[C@H](NC(=O)CCCCCCCCCCCCCCCCCCC(=O)O)C(=O)O)C(=O)N[C@@H](CC(N)=O)C(=O)N[C@@H]([C@@H](C)O)C(=O)N[C@@H](C)C(=O)N[C@@H]([C@@H](C)O)C(=O)N1)[C@@H](C)O)C(=O)N1CCC[C@H]1C(=O)N[C@@H](CO)C(=O)N[C@@H](CO)C(=O)N[C@H](C(=O)N[C@@H](CC(N)=O)C(=O)N[C@H](C(=O)NCC(=O)N[C@@H](CO)C(=O)N[C@@H](Cc1c[nH]cn1)C(=O)N[C@H](C(=O)N[C@@H](Cc1ccc(O)cc1)C(N)=O)[C@@H](C)O)C(C)C)[C@@H](C)O, also called compound 66) | 20.1 | 27 pM | 542 pM | 0.396 nM | 20.1 | 27 pM | 542 pM | 0.396 nM
K([AEEA-γGlu-C20 diacid])CNTATCATQRLANFLRHSSPNFGAIPSSTNVGPHTY-NH2 (disulfide 2-7; N-terminus assumed; SMILES CC[C@H](C)[C@H](NC(=O)[C@H](C)NC(=O)CNC(=O)[C@H](Cc1ccccc1)NC(=O)[C@H](CC(N)=O)NC(=O)[C@@H]1CCCN1C(=O)[C@H](CO)NC(=O)[C@H](CO)NC(=O)[C@H](Cc1c[nH]cn1)NC(=O)[C@H](CCCNC(=N)N)NC(=O)[C@H](CC(C)C)NC(=O)[C@H](Cc1ccccc1)NC(=O)[C@H](CC(N)=O)NC(=O)[C@H](C)NC(=O)[C@H](CC(C)C)NC(=O)[C@H](CCCNC(=N)N)NC(=O)[C@H](CCC(N)=O)NC(=O)[C@@H](NC(=O)[C@H](C)NC(=O)[C@@H]1CSSC[C@H](NC(=O)[C@@H](N)CCCCNC(=O)COCCOCCNC(=O)CC[C@H](NC(=O)CCCCCCCCCCCCCCCCCCC(=O)O)C(=O)O)C(=O)N[C@@H](CC(N)=O)C(=O)N[C@@H]([C@@H](C)O)C(=O)N[C@@H](C)C(=O)N[C@@H]([C@@H](C)O)C(=O)N1)[C@@H](C)O)C(=O)N1CCC[C@H]1C(=O)N[C@@H](CO)C(=O)N[C@@H](CO)C(=O)N[C@H](C(=O)N[C@@H](CC(N)=O)C(=O)N[C@H](C(=O)NCC(=O)N1CCC[C@H]1C(=O)N[C@@H](Cc1c[nH]cn1)C(=O)N[C@H](C(=O)N[C@@H](Cc1ccc(O)cc1)C(N)=O)[C@@H](C)O)C(C)C)[C@@H](C)O, also called compound 58) | 21.9 | 47 pM | 1030 pM | 0.088 nM | 21.9 | 47 pM | 1030 pM | 0.088 nM
K([γGlu-C20 diacid])CNTATCATQRLAEFLRHSSPNFGAIPSSTNVGPHTY-NH2 (disulfide 2-7) |  | 101 pM | 1450 pM | 0.179 nM |  | 101 pM | 1450 pM | 0.179 nM
K([γGlu-C20 diacid])CNTATCATQRLANFLRHSSPNFGAIPSSTNVGSHTY-NH2 (disulfide 2-7; N-terminus assumed; SMILES CC[C@H](C)[C@H](NC(=O)[C@H](C)NC(=O)CNC(=O)[C@H](Cc1ccccc1)NC(=O)[C@H](CC(N)=O)NC(=O)[C@@H]1CCCN1C(=O)[C@H](CO)NC(=O)[C@H](CO)NC(=O)[C@H](Cc1c[nH]cn1)NC(=O)[C@H](CCCNC(=N)N)NC(=O)[C@H](CC(C)C)NC(=O)[C@H](Cc1ccccc1)NC(=O)[C@H](CC(N)=O)NC(=O)[C@H](C)NC(=O)[C@H](CC(C)C)NC(=O)[C@H](CCCNC(=N)N)NC(=O)[C@H](CCC(N)=O)NC(=O)[C@@H](NC(=O)[C@H](C)NC(=O)[C@@H]1CSSC[C@H](NC(=O)[C@@H](N)CCCCNC(=O)CC[C@H](NC(=O)CCCCCCCCCCCCCCCCCCC(=O)O)C(=O)O)C(=O)N[C@@H](CC(N)=O)C(=O)N[C@@H]([C@@H](C)O)C(=O)N[C@@H](C)C(=O)N[C@@H]([C@@H](C)O)C(=O)N1)[C@@H](C)O)C(=O)N1CCC[C@H]1C(=O)N[C@@H](CO)C(=O)N[C@@H](CO)C(=O)N[C@H](C(=O)N[C@@H](CC(N)=O)C(=O)N[C@H](C(=O)NCC(=O)N[C@@H](CO)C(=O)N[C@@H](Cc1c[nH]cn1)C(=O)N[C@H](C(=O)N[C@@H](Cc1ccc(O)cc1)C(N)=O)[C@@H](C)O)C(C)C)[C@@H](C)O, also called compound 60) [N^ε1-[(4S)-4-carboxy-4-(19-carboxynonadecanoylamino)butanoyl]-[Arg17,Pro21,Pro27,His35]-h-amylin] | 15.3 | 351 pM | 5360 pM | 0.695 nM | 15.3 | 351 pM | 5360 pM | 0.695 nM
